Square brackets hold non-standard residues; d marks the D form. Ends that are not written are not given here. S1 = acylated D-Pra whose alkyne is clicked through a 1,2,3-triazole to acylated azidolysine-PEG2-biotin; dPra = C#CC[C@@H](N)C(=O)O
How the values were obtained:
[1] = target: Active Akt2 (with N terminal His6 tag) (human) (UniProt P31751); assay: single-component ELISA, bi-L as detection agent (FIG. 23A, given there as EC50)
[2] = target: Active Akt2 (with N terminal His6 tag) (human) (UniProt P31751); assay: single component ELISA, N-tL as surface-localized capture agent (FIG. 23A)
[3] = target: Active Akt2 (with N terminal His6 tag) (human) (UniProt P31751); assay: summary sentence of Example 1; method not given
[4] = target: Active Akt2 (with N terminal His6 tag) (human) (UniProt P31751); assay: SPR, Biacore T100, biotinylated N-tL on SA chip, Akt2 protein as analyte, 10° C., 1:1 binding model
[5] = target: Active Akt2 (with N terminal His6 tag) (human) (UniProt P31751); assay: single-component ELISA, mono-L as detection agent (FIG. 23A, given there as EC50)

Active Akt2 (with N terminal His6 tag) (human), sequence (P31751 other isoform, or with tags, fused parts or gaps): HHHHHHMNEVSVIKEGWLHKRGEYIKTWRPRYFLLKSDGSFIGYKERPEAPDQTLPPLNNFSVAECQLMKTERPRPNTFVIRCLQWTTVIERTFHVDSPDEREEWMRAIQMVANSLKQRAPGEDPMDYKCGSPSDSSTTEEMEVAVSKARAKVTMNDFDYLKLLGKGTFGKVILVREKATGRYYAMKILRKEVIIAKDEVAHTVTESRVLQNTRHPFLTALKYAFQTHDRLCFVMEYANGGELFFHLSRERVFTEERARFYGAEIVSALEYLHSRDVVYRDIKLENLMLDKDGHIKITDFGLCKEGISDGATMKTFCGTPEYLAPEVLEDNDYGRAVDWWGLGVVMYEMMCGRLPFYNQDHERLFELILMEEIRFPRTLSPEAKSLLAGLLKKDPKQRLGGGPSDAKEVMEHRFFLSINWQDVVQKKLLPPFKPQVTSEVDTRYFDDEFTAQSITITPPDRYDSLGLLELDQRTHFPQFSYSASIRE

B1: bi-L (designed binder)
peptide 1: [dW][dK][dV][dK][dL]-NH2
peptide 2: [dH][dN]G[dY][dF][dPra]
modifications: also: arms joined via S3 linker (azide, PEG2-biotin) coupled to the wkvkl N-terminus, biotin-PEG2 label, triazole to a chain's N/C-terminus via S3 linker
Question: B1 was tested. Which affinity [1] did it give?
Answer: The affinity was 1 µM.

B2: N-tL (designed binder)
peptide 1: [dW][dK][dV][dK][dL]
peptide 2: [dH][dN]G[dY][dF]
peptide 3: Ac-[dPra][dY][dY][dR][dF]G-NH2
modifications: triazole (positions not given here); not fully specified (N-terminus, bridges); also: C-terminal D-Pra clicked via triazole to L-azidolysine of S4, arm not given here, N-terminus coupled to S4 (azidolysine-PEG2-biotin)
Question: Which results are given for B2?
Answer: EC50 [2]: 0.019 µM; affinity [3]: 20 nM; Kd [4]: 0.025 µM

Question: For S1-[dW][dK][dV][dK][dL]-NH2 (designed binder) [mono-L], which affinity [5] is on record?
Answer: The affinity was 3 µM.

From patent US20150219657A1
